Reference: publication PMC3642142

Biological target: IAEDANS-labeled K75C mutant calmodulin (UniProt P0DP23)
Assay: other fluorescence titration; IAEDANS emission (excitation 340 nm, emission 475 nm) of about 1 nM I-CaM; LSEL15 titrated; 10 mM MOPS pH 7.4, 100 mM NaCl, 0.3 mM CaCl2, 0.1 mg/ml BSA

- Kd: 3.8 nM
Substance: Peptide LSEL15 (L-selectin residues Ala311-Lys325)
